Measured values taken from patent publication US20240409638A1 (AVACTA LIFE SCIENCES, published 2024).

Assays:
[1] = target: T1, human PD-L1-Fc (R&D Systems) (human, UniProt Q9NZQ7 19-239); test: PD-L1/PD-1 competition ELISA (binding inhibition %): human PD-1-Fc coated, AFFIMER preincubated with huPD-L1-Fc at its EC80, bound PD-L1 detected; blocked ligand: human PD-1-Fc. The table column is headed 'EC50 (nM)'; the text calls the values IC50
T1 construct: Bought reagent; also called huPD-L1-Fc; huPD-L1; not shown: Fc part of the bought fusion
T1 sequence (Q9NZQ7 19-239 limits assumed): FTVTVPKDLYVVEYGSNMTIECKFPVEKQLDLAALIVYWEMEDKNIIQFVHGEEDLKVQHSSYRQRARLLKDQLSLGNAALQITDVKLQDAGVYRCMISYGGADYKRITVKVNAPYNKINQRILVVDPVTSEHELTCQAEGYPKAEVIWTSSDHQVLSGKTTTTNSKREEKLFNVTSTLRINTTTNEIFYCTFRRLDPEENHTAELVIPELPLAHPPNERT
Protocol: Plates were washed two times with washing buffer (PBS, Tween 20 0.1%) with a plate washer and saturated with Casein 5% (Sigma) in PBS for 90 minutes at room temperature (25±1° C.). […] Plates were washed 3 times as described previously. […] Plates were washed 3 times as described previously and Streptavidin-HRP was added, and the plates were incubated for 30 minutes at room temperature (25±1° C.). Plates were washed a last time and the substrate (TMB; Pierce Thermo-Scientific) was added to the plate. After 10 minutes, the reaction was stopped using an acidic solution and the plates were read at absorbance 450-630 nm. The IC₅₀ was then calculated using the interpolated non-linear four-parameters standard curve.

[2] = target: T2, human serum albumin (HSA) (human, UniProt P02768 25-609); test: SPR, Biacore, HSA amine-coupled on CM5; E. coli-produced format
T2 construct: The assays used bought HSA (Sigma #A37812 in the SPR work); also called HuSA
T2 sequence (P02768 25-609): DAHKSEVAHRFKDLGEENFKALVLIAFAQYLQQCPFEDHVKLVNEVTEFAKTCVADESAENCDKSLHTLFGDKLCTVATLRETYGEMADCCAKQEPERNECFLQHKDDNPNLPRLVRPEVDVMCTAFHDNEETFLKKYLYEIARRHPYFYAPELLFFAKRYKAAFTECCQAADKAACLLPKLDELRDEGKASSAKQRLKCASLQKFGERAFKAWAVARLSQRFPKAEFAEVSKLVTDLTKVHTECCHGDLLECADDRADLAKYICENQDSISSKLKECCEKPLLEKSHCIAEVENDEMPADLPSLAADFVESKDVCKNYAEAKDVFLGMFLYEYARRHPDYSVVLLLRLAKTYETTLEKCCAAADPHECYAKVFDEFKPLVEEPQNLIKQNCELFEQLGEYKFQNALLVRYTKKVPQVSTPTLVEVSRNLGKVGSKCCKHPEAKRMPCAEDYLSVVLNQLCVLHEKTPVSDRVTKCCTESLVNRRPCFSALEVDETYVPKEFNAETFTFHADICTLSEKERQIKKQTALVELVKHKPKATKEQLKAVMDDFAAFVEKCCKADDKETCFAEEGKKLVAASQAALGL
Protocol: (§1) For the HSA binding kinetic analysis, HSA (Sigma #A37812) was immobilized on a CM5 chip surface using amine coupling in 10 mM sodium acetate (pH 5.0) (Cytvia). […] The chip surface was regenerated with 3 mM NaOH for 20 seconds at a flow rate of 20 μl/min. The kinetic data was blank subtracted and fit to a 1:1 Langmuir binding model (BIAcore evaluation software; Cytiva).

[3] = target: T2, human serum albumin (HSA); test: HSA binding ELISA: HSA coated, bound AFFIMER detected with biotinylated anti-cystatin A antibody and streptavidin-HRP
Protocol: (§2) Plates were washed and AFFIMER® polypeptides were detected using streptavidin-HRP for 30 min. After the last washing step, the TMB substrate was added for the development of the experiment and plates were read at 450 nm. The EC₅₀ was then calculated using the interpolated non-linear four-parameters standard curve.

[4] = target: T3, murine serum albumin (MSA) (murine, UniProt P07724 25-608); test: SPR (Biacore): immobilized ligand MSA (Sigma # A3559), AFFIMER as analyte, pH 7.0 by the legend
T3 construct: Bought reagent

[5] = target: T1, human PD-L1-Fc (R&D Systems); test: SPR (Biacore 8K): human PD-L1-Fc amine-coupled on a CM5 chip, AFFIMER as analyte
[6] = target: T2, human serum albumin (HSA); test: SPR (Biacore 8K): HSA amine-coupled on a CM5 chip, AFFIMER as analyte, pH 6.0, 1:1 Langmuir fit
Protocol: as §1

[7] = target: T4, PD-L1 on cells (NCI-H441 cells; aAPC PD-L1/CHO-K1 cells, Promega) (human, UniProt Q9NZQ7 19-290); test: flow cytometry, % positive cells, NCI-H441 cells (endogenous PD-L1)
T4 construct: whole, on cells; also called human PD-L1-expressing CHO-K1 cells; H441 cells endogenously expressing PD-L1
T4 sequence (Q9NZQ7 19-290): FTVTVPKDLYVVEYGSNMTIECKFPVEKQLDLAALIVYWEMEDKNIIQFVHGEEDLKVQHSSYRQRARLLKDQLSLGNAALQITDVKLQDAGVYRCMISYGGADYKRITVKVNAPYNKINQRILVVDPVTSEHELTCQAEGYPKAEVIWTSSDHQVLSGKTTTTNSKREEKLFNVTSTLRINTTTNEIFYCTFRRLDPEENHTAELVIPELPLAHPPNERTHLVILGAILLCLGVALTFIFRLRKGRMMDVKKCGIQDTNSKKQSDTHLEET
Protocol: Lung cancer cell line (NCI-H441 (ATCC), CHO-K1 recombinant cell line overexpressing PD-L1 aAPC/CHO-K1 (Promega J1252)) and a negative cell line (CHO-K1, ATCC) were used to assess AFFIMER® agent binding capacity to PD-L1 by flow cytometry.
Briefly, 50 000 cells were added to each well of a 96-well microplate. After this step and each subsequent step, cells were washed twice with PBS+2 mM EDTA using 350g centrifugation for 3 minutes at 4° C. All steps were performed at 4° C. using assay buffer comprising 5% FBS, 2 mM EDTA and 0.05% sodium azide in PBS unless otherwise stated. Independent AFFIMER® agent dilutions were prepared in duplicate and added to the plates. […] Fixation was performed for 10 minutes at 4° C. with Fixation Buffer (Bio-techne FC004). Cells were resuspended in 100 ul assay buffer prior the acquisition of the data. 5000 events were collected by Flow cytometry (Millipore Guava 12HT). The results were gated on live cells and singlets (SSC-H vs SSC-A). The percentage of cells expressing PD-L1 bound by the AFFIMER® agent (positive cells) was determined by using as negative control (background) where the wells were stained with the AF488 conjugated secondary antibody only without AFFIMER® agent. The average of the duplicate wells was used to calculate EC₅₀ using a four-parameter non-linear regression curve fit using Graphpad Prism software. […]

[8] = target: T1, human PD-L1-Fc (R&D Systems); test: human PD-L1-Fc binding ELISA: huPD-L1-Fc coated, anti-cystatin A detection, no HSA in the assay buffer
Protocol: as §2

[9] = target: T2, human serum albumin (HSA); test: SPR (Biacore 8K): HSA amine-coupled on a CM5 chip, AFFIMER as analyte, pH 7.4, 1:1 Langmuir fit
Protocol: as §1

B1: Clone 80 XT35 (anti-PD-L1 type III AFFIMER® XT in-line fusion dimer XT) (designed binder)
chain: MIPGGLSEAKPATPEIQEIVDKVKPQLEEKTGETYGKLEAVQYKTQVVRRKHFPQWPGTNYYIKVRAGDNKYMHLKVFKSLDLQPREVFQEDLVLTGYQVDKNKDDELTGFAEAAAKEAAAKEAAAKEAAAKEAAAKEAAAKMIPGGLSEAKPATPEIQEIVDKVKPQLEEKTGETYGKLEAVQYKTQVVRRKHFPQWPGTNYYIKVRAGDNKYMHLKVFKSLDLQPREVFQEDLVLTGYQVDKNKDDELTGFAEAAAKEAAAKEAAAKEAAAKEAAAKEAAAKMIPRGLSEAKPATPEIQEIVDKVKPQLEEKTNETYGKLEAVQYKTQVLANFFQRRWPGSTNYYIKVRAGDNKYMHLKVFNGPWKFRNTDRGADRVLTGYQVDKNKDDELTGFHHHHHH
notes: Made in E. coli; Two Clone 80 units are fused to one HSA-41; also called XT35_1; ILF trimer format
[1]
  IC50: 0.84 nM
[2]
  Kd: 9 nM
[3]
  EC50: 0.03 nM
[4]
  koff: 0.0474 s⁻¹
  kon: 176000 M⁻¹ s⁻¹
[5]
  Kd: 0.06 nM
  koff: 7.12e-05 s⁻¹
  kon: 1.19e+06 M⁻¹ s⁻¹
[6]
  Kd: 4.44 nM
  koff: 0.00302 s⁻¹
  kon: 681000 M⁻¹ s⁻¹
[7]
  EC50: 0.41 nM
[8]
  EC50: 0.036 nM
[9]
  Kd: 6.13 nM
  koff: 0.00589 s⁻¹
  kon: 961000 M⁻¹ s⁻¹
